Target: CXCR2 expressed on 300-19 pre-B cells
Test: cell-based or functional assay

Substance: human wild-type GCP-2 (granulocyte chemotactic protein 2, CXCL6), recombinant (from UniProt P80162 38-114) (ligand)
- chemotaxis in Boyden chambers (Transwell), optimal concentration: 50 nM
- transendothelial migration in Boyden chambers (EA.hy 926 monolayer), optimal concentration: 50 nM

Source: patent US20260092091A1
